Assay results: publication PMC6930692, “Superior Treg-Expanding Properties of a Novel Dual-Acting Cytokine Fusion Protein” (Frontiers in Pharmacology, 2019)

Key:
[1] = molecular target: T1, mouse TNFR2-Fc (mouse, UniProt P25119 23-258); test: quartz crystal microbalance; TNFR2-Fc chemically immobilised on a carboxyl sensor chip at high density (270 Hz); PBST (PBS, 0.1% Tween 20) pH 7.4, 37°C; analytes 2 to 32 nM; Kd = koff/kon assuming 1:1 binding; details: both partners purified
T1 construct: mouse TNF receptor 2 (TNFR2) as an Fc fusion protein; neither the source of the protein nor the kind of Fc is told; Also used here as the TNFR2 of the functional rows (BV-2 cells, T cells, sTNFR2); also called mTNFR2-Fc
T1 sequence (looked up): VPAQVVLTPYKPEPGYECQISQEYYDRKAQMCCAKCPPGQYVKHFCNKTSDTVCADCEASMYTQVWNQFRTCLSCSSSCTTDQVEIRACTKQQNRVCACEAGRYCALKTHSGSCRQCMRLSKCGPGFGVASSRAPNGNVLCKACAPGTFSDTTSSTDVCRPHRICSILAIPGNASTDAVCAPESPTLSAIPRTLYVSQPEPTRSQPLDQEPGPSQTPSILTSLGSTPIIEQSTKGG

[2] = molecular target: the molecule itself; test: SDS-PAGE under non-reducing conditions; 2 µg purified fusion protein, 8% SDS-PAGE with and without 2-ME, Coomassie staining; disulfide-linked dimer
[3] = molecular target: T1, mouse TNFR2-Fc; test: ELISA; mouse TNFR1-Fc or TNFR2-Fc coated at 1 µg/ml in PBS; fusion proteins in 2% skim milk powder in PBS, 1 h at RT; detected with anti-TNF (HP8001) or anti-his-tag antibody and HRP-conjugated secondary antibody; details: both partners purified
[4] = molecular target: T2, mouse TNFR1-Fc (mouse, UniProt P25118 30-212); test: as above; details: both partners purified
T2 construct: mouse TNF receptor 1 (TNFR1) as an Fc fusion protein; neither the source of the protein nor the kind of Fc is told; Also used here as the TNFR1 of the L929 functional rows; also called mTNFR1-Fc
T2 sequence (looked up): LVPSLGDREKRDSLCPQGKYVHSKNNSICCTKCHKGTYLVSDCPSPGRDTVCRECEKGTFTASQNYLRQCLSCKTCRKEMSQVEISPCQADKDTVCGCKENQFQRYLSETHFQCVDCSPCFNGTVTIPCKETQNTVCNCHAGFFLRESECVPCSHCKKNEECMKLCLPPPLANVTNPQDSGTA

B1: IL2-EHD2-sc-mTNFR2 (ligand)
chain: APTSSSTSSSTAEAQQQQQQQQQQQQHLEQLLMDLQELLSRMENYRNLKLPRMLTFKFYLPKQATELKDLQCLEDELGPLRHVLDLTQSKSFQLEDAENFISNIRVTVVKLKGSDNTFECQFDDESATVVDFLRRWIAFCQSIISTSPQPTVKILQSSCDGGGHFPPTIQLLCLVSGYTPGTINITWLEDGQVMDVDLSTASTTQEGELASTQSELTLSQKHWLSDRTYTCQVTYQGHTFEDSTKKCAPVAHVVANHQVEEQLEWLSQRANALLANGMDLKDNQLVVPADGLYLVYSQVLFKGQGCPDYVLLTHTVSRFAISYQEKVNLLSAVKSPCPKDTPEGAELKPWYEPIYLGGVFQLEKGDQLSAEVNLPKYLNFRESGQVYFGVIALPVAHVVANHQVEEQLEWLSQRANALLANGMDLKDNQLVVPADGLYLVYSQVLFKGQGCPDYVLLTHTVSRFAISYQEKVNLLSAVKSPCPKDTPEGAELKPWYEPIYLGGVFQLEKGDQLSAEVNLPKYLNFRESGQVYFGVIALPVAHVVANHQVEEQLEWLSQRANALLANGMDLKDNQLVVPADGLYLVYSQVLFKGQGCPDYVLLTHTVSRFAISYQEKVNLLSAVKSPCPKDTPEGAELKPWYEPIYLGGVFQLEKGDQLSAEVNLPKYLNFRESGQVYFGVIAL
Kd [1]: 890 pM | kon [1]: 589000 M⁻¹ s⁻¹ | stoichiometry N [2]: 2 | EC50 [3]: 53 pM

B2: EHD2-sc-mTNFR2 (ligand)
chain: PTVKILQSSCDGGGHFPPTIQLLCLVSGYTPGTINITWLEDGQVMDVDLSTASTTQEGELASTQSELTLSQKHWLSDRTYTCQVTYQGHTFEDSTKKCAPVAHVVANHQVEEQLEWLSQRANALLANGMDLKDNQLVVPADGLYLVYSQVLFKGQGCPDYVLLTHTVSRFAISYQEKVNLLSAVKSPCPKDTPEGAELKPWYEPIYLGGVFQLEKGDQLSAEVNLPKYLNFRESGQVYFGVIALPVAHVVANHQVEEQLEWLSQRANALLANGMDLKDNQLVVPADGLYLVYSQVLFKGQGCPDYVLLTHTVSRFAISYQEKVNLLSAVKSPCPKDTPEGAELKPWYEPIYLGGVFQLEKGDQLSAEVNLPKYLNFRESGQVYFGVIALPVAHVVANHQVEEQLEWLSQRANALLANGMDLKDNQLVVPADGLYLVYSQVLFKGQGCPDYVLLTHTVSRFAISYQEKVNLLSAVKSPCPKDTPEGAELKPWYEPIYLGGVFQLEKGDQLSAEVNLPKYLNFRESGQVYFGVIAL
Kd [1]: 120 pM | kon [1]: 1.2e+06 M⁻¹ s⁻¹ | stoichiometry N [2]: 2 | EC50 [3]: 31 pM

B3: soluble recombinant mouse TNF (ligand, UniProt P06804 80-235, looked up)
chain: LRSSSQNSSDKPVAHVVANHQVEEQLEWLSQRANALLANGMDLKDNQLVVPADGLYLVYSQVLFKGQGCPDYVLLTHTVSRFAISYQEKVNLLSAVKSPCPKDTPEGAELKPWYEPIYLGGVFQLEKGDQLSAEVNLPKYLDFAESGQVYFGVIAL
notes: soluble recombinant mouse tumor necrosis factor (TNF), wild type; Positive control; also called sTNF; wild-type soluble TNF
binding result [4]: binds
